Where a chain is given by its changes, count along the chain named.
T1: recombinant human CD32b (human, UniProt P31994 46-217)
T1 sequence (looked up): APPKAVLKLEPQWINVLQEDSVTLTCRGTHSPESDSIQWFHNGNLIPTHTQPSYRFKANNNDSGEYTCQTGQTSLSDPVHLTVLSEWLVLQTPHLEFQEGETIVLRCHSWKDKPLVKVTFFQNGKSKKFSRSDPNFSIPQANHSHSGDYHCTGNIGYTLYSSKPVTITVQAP

T2: recombinant human CD32a (167R) (human, UniProt P12318 36-218)
T2 sequence (looked up): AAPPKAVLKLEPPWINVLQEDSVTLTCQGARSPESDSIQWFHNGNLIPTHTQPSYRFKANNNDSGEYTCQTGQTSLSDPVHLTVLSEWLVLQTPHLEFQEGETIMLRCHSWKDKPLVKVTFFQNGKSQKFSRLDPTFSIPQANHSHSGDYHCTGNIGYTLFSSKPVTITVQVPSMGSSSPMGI

T3: Recombinant Cynomolgus IL-13 Protein, His Tag (SINO BIOLOGICAL, Cat. 11057-C07H) (cynomolgus monkey, UniProt Q5I6E4 19-132 (Macaca thibetana entry))
T3 construct: also called Cyno IL-13; cynomolgus monkey IL-13
T3 chain: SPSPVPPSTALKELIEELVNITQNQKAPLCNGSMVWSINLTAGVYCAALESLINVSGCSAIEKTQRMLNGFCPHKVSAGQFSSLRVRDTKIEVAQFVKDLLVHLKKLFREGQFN

B1: Lebrikizumab (Construct 1) (antibody, human IgG4 S228P, kappa)
heavy: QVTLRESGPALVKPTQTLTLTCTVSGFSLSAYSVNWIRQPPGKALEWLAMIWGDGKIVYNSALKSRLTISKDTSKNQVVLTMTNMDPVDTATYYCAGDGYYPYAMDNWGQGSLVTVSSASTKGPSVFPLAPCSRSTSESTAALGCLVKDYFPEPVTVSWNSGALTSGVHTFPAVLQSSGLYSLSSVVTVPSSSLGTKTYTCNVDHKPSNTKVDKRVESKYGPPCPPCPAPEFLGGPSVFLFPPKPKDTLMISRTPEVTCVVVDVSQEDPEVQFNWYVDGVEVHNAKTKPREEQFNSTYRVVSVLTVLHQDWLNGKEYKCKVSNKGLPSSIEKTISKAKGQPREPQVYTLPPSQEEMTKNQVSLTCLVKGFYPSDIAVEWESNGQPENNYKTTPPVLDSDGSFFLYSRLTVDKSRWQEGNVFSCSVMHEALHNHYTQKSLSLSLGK
light: DIVMTQSPDSLSVSLGERATINCRASKSVDSYGNSFMHWYQQKPGQPPKLLIYLASNLESGVPDRFSGSGSGTDFTLTISSLQAEDVAVYYCQQNNEDPRTFGGGTKVEIKRTVAAPSVFIFPPSDEQLKSGTASVVCLLNNFYPREAKVQWKVDNALQSGNSQESVTEQDSKDSTYSLSSTLTLSKADYEKHKVYACEVTHQGLSSPVTKSFNRGEC
notes: also called Lebrikizumab-HC; Lebrikizumab-LC
B2: Construct 141 (antibody, human IgG1, kappa, L234A L235A)
heavy: EVQLQESGPGLVKPSETLSLTCTVSGFSLNAYSVNWIRQPPGKGLEWLGMIWGDGKIVYNSALKSRLTISKDSSKNQVSLKLSSVTAADTAVYYCAGDGYYPYAMDNWGQGTTVTVSSASTKGPSVFPLAPSSKSTSGGTAALGCLVKDYFPEPVTVSWNSGALTSGVHTFPAVLQSSGLYSLSSVVTVPSSSLGTQTYICNVNHKPSNTKVDKKVEPKSCDKTHTCPPCPAPEAAGGPSVFLFPPKPKDTLYITREPEVTCVVVDVSHEDPEVKFNWYVDGVEVHNAKTKPREEQYNSTYRVVSVLTVLHQDWLNGKEYKCKVSNKALPAPIEKTISKAKGQPREPQVYTLPPSRDELTKNQVSLTCLVKGFYPSDIAVEWESNGQPENNYKTTPPVLDSDGSFFLYSKLTVDKSRWQQGNVFSCSVMHEALHNHYTQKSLSLSPG
light: DIQLTQSPSSLSASVGDRVTITCRASKSVDSYGNSFMHWYQQKPGKAPKLLIYLASELESGVPSRFSGSGSGTDFTLTISSLQPEDFATYYCQQNNEDPRTFGGGTKVEIKRTVAAPSVFIFPPSDEQLKSGTASVVCLLNNFYPREAKVQWKVDNALQSGNSQESVTEQDSKDSTYSLSSTLTLSKADYEKHKVYACEVTHQGLSSPVTKSFNRGEC
notes: also called HC1; LC6_m8
B3: Construct 137 (antibody, human IgG1, kappa, L234A L235A)
heavy: EVQLLESGGGLVQPGGSLRLSCAASGFSLNAYSVNWVRQAPGKGLEWLGMIWGDGKIVYNSALKSRLTISKDSSKNTVYLQMNSLRAEDTAVYYCAGDGYYPYAMDNWGQGTTVTVSSASTKGPSVFPLAPSSKSTSGGTAALGCLVKDYFPEPVTVSWNSGALTSGVHTFPAVLQSSGLYSLSSVVTVPSSSLGTQTYICNVNHKPSNTKVDKKVEPKSCDKTHTCPPCPAPEAAGGPSVFLFPPKPKDTLYITREPEVTCVVVDVSHEDPEVKFNWYVDGVEVHNAKTKPREEQYNSTYRVVSVLTVLHQDWLNGKEYKCKVSNKALPAPIEKTISKAKGQPREPQVYTLPPSRDELTKNQVSLTCLVKGFYPSDIAVEWESNGQPENNYKTTPPVLDSDGSFFLYSKLTVDKSRWQQGNVFSCSVMHEALHNHYTQKSLSLSPG
light: B2 light
notes: also called HC5; LC6_m8
B4: Construct 107 (antibody, human IgG1, kappa, V domains shown)
VH: EVQLLESGGGLVQPGGSLRLSCAASGFSLHAYSVNWVRQAPGKGLEWLGMIWGDGKIVYNSALKSRLTISKDSSKNTVYLQMNSLRAEDTAVYYCAGDGYYPYAMDNWGQGTTVTVSS
VL: DIQLTQSPSSLSASVGDRVTITCRASKSVDSYGNSFMHWYQQKPGKAPKLLIYLASNLESGVPSRFSGSGSGTDFTLTISSLQPEDFATYYCQQNNEDPRTFGGGTKVEIKR
B5: Construct 110 (antibody, human IgG1, kappa, V domains shown)
VH: B4 VH with H30S
VL: B4 VL
B6: Construct 108 (antibody, human IgG1, kappa, V domains shown)
VH: B4 VH with H30D
VL: B4 VL
B7: Construct 114 (antibody, human IgG1, kappa, V domains shown)
VH: B4 VH with H30N, A31Q
VL: B4 VL

What was measured:
hIL-13 [1] = biological target: T4, hIL-13 (human, UniProt P35225 35-146, limits assumed); assay: cell-based or functional assay
recombinant human CD32b = biological target: T1, recombinant human CD32b; assay: SPR, antibody captured on anti-kappa chip, recombinant human receptor as analyte
Experimental: (§1) Binding affinity (KD) of antibodies to Fc receptors and C1q were determined through surface plasmon resonance (SPR) using a Biacore 8K. Briefly, an SPR chip functionalized with an anti-kappa light-chain antibody was used to capture purified antibodies normalized to […], at a flow rate of 10 uL/min for 90 seconds or 120 seconds. A paired channel with only buffer was used as reference. Subsequently, varying concentrations of recombinant human CD32a (167H), CD32a (167R), CD32b, CD16a (176V), CD16a (176F), FcRn, CD64, and C1q were injected over the surface with captured purified antibody as well as the reference channel. Regeneration of the chip between different concentrations of different antigens were performed with 10 mM Glycine HCl, pH 1.5 and antibody was again captured. Association and dissociation rate constants were subsequently determined through fitting to a 1:1 Langmuir binding model or steady-state analysis model, whichever applicable, using the Biacore Insight Evaluation Software from which a KD value was derived.

[2] = biological target: T2, recombinant human CD32a (167R); assay: as above
Experimental: as §1

recombinant human CD64 = recombinant human CD64 (human, UniProt P12314 16-288); assay: as above
Experimental: as §1

hIL-13 [3] = biological target: T4, hIL-13; assay: cell-based or functional assay; remark: listed apart in the source
recombinant human FcRn = biological target: T5, recombinant human FcRn (human, UniProt P55899 24-297; P61769 21-119); assay: SPR, antibody captured on anti-kappa chip, FcRn as analyte, pH 5.8; pH 5.8
T5 construct: also called neonatal Fc receptor
Experimental: as §1

biotinylated hIL-13 = biotinylated hIL-13 (human, UniProt P35225 35-146, limits assumed, biotinylated (site not stated)); assay: FACS; blockade of biotinylated hIL-13 (0.05 ug/mL) binding to HEK293 cells expressing hIL-13Rα1/hIL-4Rα
Experimental: Briefly, HEK293 previously transduced to stably express both hIL-13Rα and hIL-4Rα were cultured and harvested. Cells were seeded at 200,000 cells in 100 uL per well. Cells were washed and the supernatant was discarded. […] The cells were stained in this mixture at 4° C. for 1 hour. […] Cells were incubated at 4° C. for 1 hour, protected from light. Cells were then washed and the median fluorescence intensity (MFI) of cells in each well were recorded by FACS using a BD FACSCanto II. Subsequent data were analyzed using GraphPad Prism.

hIL-13 [4] = biological target: T4, hIL-13; assay: cell-based or functional assay; remark: listed apart in the source
hIL-13 [5] = biological target: T4, hIL-13; assay: cell-based or functional assay; remark: listed apart in the source
[6] = biological target: T6, Recombinant Human IL-13 Protein, His Tag (Acro Cat. IL3-H52H4) (human, UniProt P35225 35-146); assay: SPR (Biacore 8K), mAb captured on Protein G chip, IL-13 as analyte
T6 construct: Bought protein; also called Hu IL-13; not shown: His Tag
Experimental: (§2) Samples were injected in a multi-cycle manner over freshly captured mAb, by regenerating the capture surfaces with injection of glycine pH 1.5 for 30 sec at a flow rate of 30 μL/min. The data was processed and analyzed with Biacore Insight Evaluation Software Version 2.0.15.12933 (GE Healthcare) as follows. […] The responses from the two buffer blank injections were then subtracted from the reference subtracted data (2-1) to yield double-referenced data, which were fit to an 1:1 binding model to determine the apparent association (ka) and dissociation rate constants (kd). Their ratio provided the apparent equilibrium dissociation constant or affinity constant (KD=kd/ka).

[7] = biological target: T3, Recombinant Cynomolgus IL-13 Protein, …; assay: as above
Experimental: as §2

hIL-13 [8] = biological target: T4, hIL-13; assay: cell-based or functional assay; remark: listed apart in the source
hIL-13 [9] = biological target: T4, hIL-13; assay: cell-based or functional assay; remark: listed apart in the source
hIL-13 [10] = biological target: T4, hIL-13; assay: ELISA

Chain of biotinylated hIL-13 (P35225 other isoform, or with tags, fused parts or gaps limits assumed): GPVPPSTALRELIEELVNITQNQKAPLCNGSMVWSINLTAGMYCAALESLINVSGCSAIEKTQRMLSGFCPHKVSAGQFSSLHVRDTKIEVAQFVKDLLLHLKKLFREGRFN
T6 sequence (P35225 other isoform, or with tags, fused parts or gaps limits assumed): as above
T4 sequence (P35225 other isoform, or with tags, fused parts or gaps limits assumed): as above
Chain of recombinant human CD64 (P12314 16-288 limits assumed): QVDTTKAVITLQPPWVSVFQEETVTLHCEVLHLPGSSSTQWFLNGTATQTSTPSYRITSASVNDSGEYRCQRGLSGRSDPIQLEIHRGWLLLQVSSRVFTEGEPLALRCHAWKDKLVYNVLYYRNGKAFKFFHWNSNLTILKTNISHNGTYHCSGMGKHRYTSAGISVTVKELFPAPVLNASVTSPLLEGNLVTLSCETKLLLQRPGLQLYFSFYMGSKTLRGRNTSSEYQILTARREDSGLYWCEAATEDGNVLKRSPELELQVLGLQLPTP
T5 sequence (P55899 24-297 limits assumed, chain 1 of 2): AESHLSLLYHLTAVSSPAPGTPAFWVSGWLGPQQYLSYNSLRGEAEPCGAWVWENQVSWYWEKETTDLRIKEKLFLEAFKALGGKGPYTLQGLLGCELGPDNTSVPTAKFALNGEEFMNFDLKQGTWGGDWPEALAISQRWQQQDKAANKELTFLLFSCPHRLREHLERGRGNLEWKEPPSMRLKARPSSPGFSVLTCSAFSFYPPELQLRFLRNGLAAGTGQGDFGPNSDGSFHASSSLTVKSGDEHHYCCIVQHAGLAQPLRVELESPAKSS
T5 sequence (P61769 21-119 limits assumed, chain 2 of 2): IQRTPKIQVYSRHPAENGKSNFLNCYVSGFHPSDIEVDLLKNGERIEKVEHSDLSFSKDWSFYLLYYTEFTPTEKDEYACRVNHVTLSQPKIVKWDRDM

Binder | CD23 Expression Inhibition IC50 (human PBMCs) (hIL-13 [3]) | pSTAT6 Inhibition IC50 (human PBMCs) (hIL-13 [3]) | IC50 (biotinylated hIL-13) | pSTAT6 Inhibition IC50 (HT-29 cells) (hIL-13 [4]) | TF-1 Proliferation Inhibition IC50 (hIL-13 [5]) | Kd [6] | Kd [7] | TARC Inhibition IC50 (A549 cells) (hIL-13 [8]) | TARC Release IC50 (A549 cells) (hIL-13 [9]) | further results
B1 | 0.81 nM | 0.38 nM | 1.11 nM | 0.23 nM | 0.2 nM | 0.131 nM | 0.309 nM | 0.74 nM | 0.9 nM | CCL2 Secretion IC50 (HaCaT cells) (hIL-13 [1]): 0.076 nM; CCL26 Secretion IC50 (HaCaT cells) (hIL-13 [1]): 0.055 nM; NTRK1 Expression IC50 (HaCaT cells) (hIL-13 [1]): 0.056 nM; Kd (recombinant human CD32b): 2930 nM; Kd [2]: 2380 nM; Kd (recombinant human CD64): 1.12 nM; Kd (recombinant human FcRn): 1060 nM
B2 | 0.86 nM | 0.41 nM | 0.81 nM | 0.25 nM | 0.19 nM | 0.107 nM | 0.329 nM | 0.73 nM | – | CCL2 Secretion IC50 (HaCaT cells) (hIL-13 [1]): 0.075 nM; CCL26 Secretion IC50 (HaCaT cells) (hIL-13 [1]): 0.055 nM; NTRK1 Expression IC50 (HaCaT cells) (hIL-13 [1]): 0.054 nM; Kd (hIL-13 [10]): 0.025 nM
B3 | 1.01 nM | 0.44 nM | 0.89 nM | 0.33 nM | 0.16 nM | 0.0421 nM | 0.246 nM | 0.87 nM | – | Kd (hIL-13 [10]): 0.026 nM
B4 | – | – | – | – | – | – | – | – | 1.3 nM | –
B5 | – | – | – | – | – | – | – | – | 1 nM | –
B6 | – | – | – | – | – | – | – | – | 1 nM | –
B7 | – | – | – | – | – | – | – | – | 1.1 nM | –

Reference: patent US20250129150A1 (APOGEE THERAPEUTICS, published 2025)
